Measurements published in PMC5698293, “Single-molecule visualization of conformational changes and substrate transport in the vitamin B12 ABC importer BtuCD-F” (Nature Communications, 2017).

Experiments:
[1] = molecular target: BtuCDcys (cysteine mutant of the vitamin B12 ABC importer BtuCD: BtuC Q111C/W115L, cys-less BtuC and BtuD), reconstituted in liposomes (Escherichia coli) (UniProt P06609)
[2] = molecular target: BtuCDcys (cysteine mutant of the vitamin B12 ABC importer BtuCD: BtuC Q111C/W115L, cys-less BtuC and BtuD), reconstituted in liposomes (Escherichia coli) (UniProt P06609); experiment: single-molecule fluorescence intensity change (TIRF microscopy); BtuCDcys labelled with Alexa Fluor 555 in 100-nm proteoliposomes (empty lumen, no ATP) tethered to glass by biotin-streptavidin; unlabelled BtuF added to the outside; 50 mM KPi, 200 mM KCl, pH 7.5; room temperature
[3] = molecular target: T1, BtuCD-F (BtuCD with BtuF D141C), ATPase site (Escherichia coli, UniProt P06611, C180S); settings: 2 mM ATP, 10 mM MgCl2, pH 7.5, 30 °C; BtuCD WT with BtuF D141C
T1 construct: gene btuD

fraction of inside-out complexes that respond to ATP by a decrease of the Alexa Fluor 555 fluorescence of BtuCDcys (corrected for orientation; unlabelled BtuF in the lumen) [1] [%]	fraction of liposomes in which the Alexa Fluor 555 fluorescence of BtuCDcys decreased upon addition of 2 mM ATP and 10 mM Mg2+ on the outside (unlabelled BtuF in the lumen; no events without BtuF) [1] [%]	percent of right-side-out complexes with an increase in fluorescence upon addition of BtuF [2] [%]	percent of traces with an increase in fluorescence upon addition of BtuF [2] [%]	Molecule	NADH-coupled PK/LDH ATPase assay in proteoliposomes [3]
18	8	82	45	BtuF D141C (periplasmic vitamin B12-binding protein, cys-less, signal peptide removed) (from UniProt P37028 23-266) (natural protein)	–
–	–	–	–	Nc1ncnc2c1ncn2[C@@H]1O[C@H](COP(=O)(O)OP(=O)(O)OP(=O)(O)O)[C@@H](O)[C@H]1O [ATP]	ATPase rate of various BtuCD-F mutants with or without fluorescent label reconstituted in liposomes
